# Test results published in IntAct's records for PubMed 11967127.
# B1: Disabled homolog 2 (Mus musculus), P98078 (parent)
# chain: MSNEVETSTTNGQPDQQAAPKAPSKKEKKKGSEKTDEYLLARFKGDGVKYKAKLIGIDDVPDARGDKMSQDSMMKLKGMAAAGRSQGQHKQRIWVNISLSGIKIIDEKTGVIEHEHPVNKISFIARDVTDNRAFGYVCGGEGQHQFFAIKTGQQAEPLVVDLKDLFQVIYNVKKKEEDKKKVEEANKAEENGSEALMTLDDQANKLKLGVDQMDLFGDMSTPPDLNSPTESKDILLVDLNSEIDTNQNSLRENPFLTNGVTSCSLPRPKPQASFLPENAFSANLNFFPTPNPDPFRDDPFAQPDQSAPSSFDSLTSPDQKKASLSSSSTPQSKGPLNGDTDYFGQQFDQLSNRTGKPEAQGGPWPYPSSQTQQAVRTQNGVSEREQNGFHIKSSPNPFVGSPPKGLSVPNGVKQDLESSVQSSAHDSIAIIPPPQSTKPGRGRRTAKSSANDLLASDIFASEPPGQMSPTGQPAVPQSNFLDLFKGNAPAPVGPLVGLGTVPVTPPQAGPWTPVVYSPSTTVVPGAIISGQPPSFRQPLVFGTTPAVQVWNQSPSFATPASPPPPTVWCPTTSVAPNAWSSTSPLGNPFQSNNIFPPPTMSTQSSPQPMMSSVLATPPQPPPRNGPLKDIPSDAFTGLDPLGDKEVKEVKEMFKDFQLRQPPLVPSRKGETPPSGTSSAFSSYFNNKVGIPQEHVDHDDFDANQLLNKINEPPKPAPRQGVLLGTKSADNSLENPFSKGFSSSNPSVVSQPASSDPHRSPFGNPFA
# B2: Disabled homolog 1 (Mus musculus), P97318 (parent)
# chain: MSTETELQVAVKTSAKKDSRKKGQDRSEATLIKRFKGEGVRYKAKLIGIDEVSAARGDKLCQDSMMKLKGVVAGARSKGEHKQKIFLTISFGGIKIFDEKTGALQHHHAVHEISYIAKDITDHRAFGYVCGKEGNHRFVAIKTAQAAEPVILDLRDLFQLIYELKQREELEKKAQKDKQCEQAVYQTILEEDVEDPVYQYIVFEAGHEPIRDPETEENIYQVPTSQKKEGVYDVPKSQPNSQPLEDFESRFAAATPNRNLSMDFDELLEATKVSAVTQLELFGDMSTPPDITSPPTPATPGDAFLPSSSQTLPGSADVFGSMSFGTAAVPSGYVAMGAVLPSFWGQQPLVQQQIAMGAQPPVAQVIPGAQPIAWGQPGLFPATQQAWPTVAGQFPPAAFMPTQTVMPLAAAMFQGPLTPLATVPGTNDSARSSPQSDKPRQKMGKESFKDFQMVQPPPVPSRKPDQPSLTCTSEAFSSYFNKVGVAQDTDDCDDFDISQLNLTPVTSTTPSTNSPPTPAPRQSSPSKSSASHVSDPTADDIFEEGFESPSKSEEQEAPDGSQASSTSDPFGEPSGEPSGDNISPQDGS
# Variants of: B1
# Conditions: with myo6_chick MYO6, Q9I8D1
row,Variant,effect of a mutation on the interaction
1,S682A;Y683A;F684A,disrupting interaction
2,D699A;F700A;D701A,decreasing interaction

# Variants of: B2
# Conditions: with myo6_chick MYO6, Q9I8D1
# Target sequence in this assay (Q9I8D1 whole entry): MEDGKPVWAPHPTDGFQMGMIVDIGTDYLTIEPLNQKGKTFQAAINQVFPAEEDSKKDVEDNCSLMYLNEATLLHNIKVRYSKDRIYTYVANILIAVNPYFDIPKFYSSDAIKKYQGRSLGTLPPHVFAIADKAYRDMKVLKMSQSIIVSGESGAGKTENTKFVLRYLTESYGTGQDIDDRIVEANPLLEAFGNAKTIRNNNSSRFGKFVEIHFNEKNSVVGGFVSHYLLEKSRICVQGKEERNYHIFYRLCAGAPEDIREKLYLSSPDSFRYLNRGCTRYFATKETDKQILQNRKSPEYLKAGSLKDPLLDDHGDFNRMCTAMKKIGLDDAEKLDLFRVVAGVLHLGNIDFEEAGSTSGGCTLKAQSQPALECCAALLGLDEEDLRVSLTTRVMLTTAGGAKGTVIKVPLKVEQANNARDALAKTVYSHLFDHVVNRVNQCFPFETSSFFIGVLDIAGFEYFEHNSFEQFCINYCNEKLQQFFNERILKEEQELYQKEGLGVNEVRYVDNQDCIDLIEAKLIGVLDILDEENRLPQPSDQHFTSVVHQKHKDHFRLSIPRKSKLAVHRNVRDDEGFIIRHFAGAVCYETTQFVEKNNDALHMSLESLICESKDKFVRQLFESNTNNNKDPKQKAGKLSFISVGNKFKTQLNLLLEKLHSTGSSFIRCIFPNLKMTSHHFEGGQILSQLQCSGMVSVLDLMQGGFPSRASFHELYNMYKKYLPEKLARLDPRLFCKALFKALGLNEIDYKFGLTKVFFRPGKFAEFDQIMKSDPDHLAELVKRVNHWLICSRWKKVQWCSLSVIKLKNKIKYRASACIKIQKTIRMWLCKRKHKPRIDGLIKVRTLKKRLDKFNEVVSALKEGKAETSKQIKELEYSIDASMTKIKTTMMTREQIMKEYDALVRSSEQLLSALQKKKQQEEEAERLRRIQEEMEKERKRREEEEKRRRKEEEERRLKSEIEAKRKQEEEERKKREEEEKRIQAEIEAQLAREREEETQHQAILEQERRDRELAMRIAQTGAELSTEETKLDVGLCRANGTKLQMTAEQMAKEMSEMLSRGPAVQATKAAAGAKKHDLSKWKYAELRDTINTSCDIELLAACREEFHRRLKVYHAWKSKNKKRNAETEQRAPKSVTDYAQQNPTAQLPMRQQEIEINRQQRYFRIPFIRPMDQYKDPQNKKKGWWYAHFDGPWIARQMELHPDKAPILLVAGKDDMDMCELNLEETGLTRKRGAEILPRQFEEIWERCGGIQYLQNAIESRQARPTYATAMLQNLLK
row,Variant,effect of a mutation on the interaction
1,S478A;Y479A;F480A,decreasing interaction
